Assay results taken from PMC6651876, “PEA-15 C-Terminal Tail Allosterically Modulates Death-Effector Domain Conformation and Facilitates Protein–Protein Interactions” (International Journal of Molecular Sciences, 2019).

Molecular target: T1, PEA-15 S104D/S116D double mutant (PEA-15DD) (UniProt Q15121 1-130, S104D | S116D)
T1 construct: PEA-15 (phosphoprotein enriched in astrocytes, 15 kDa), full length, with the phosphomimetic mutations S104D and S116D; Made by site-directed mutagenesis of the PEA-15 plasmid (pET-28b); expressed and purified as the wild type
T1 sequence (Q15121 whole entry S104D/S116D): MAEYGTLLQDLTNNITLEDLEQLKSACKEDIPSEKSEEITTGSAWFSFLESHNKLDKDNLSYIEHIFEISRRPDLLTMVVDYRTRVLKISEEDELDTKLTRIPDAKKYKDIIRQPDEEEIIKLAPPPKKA
Experiment: NMR titration; data not shown: spectra of uniformly labeled PEA-15DD with unlabeled FADD at molar ratios 1:0.5, 1:1 and 1:2; 20 mM sodium phosphate pH 7.0, 150 mM NaCl, 1 mM DTT
Settings: both partners purified

B1: Fas-associated death domain (FADD) protein, full length (natural protein, UniProt Q13158 1-208, looked up)
chain: MDPFLVLLHSVSSSLSSSELTELKFLCLGRVGKRKLERVQSGLDLFSMLLEQNDLEPGHTELLRELLASLRRHDLLRRVDDFEAGAAAGAAPGEEDLCAAFNVICDNVGKDWRRLARQLKVSDTKIDSIEDRYPRNLTERVRESLRIWKNTEKENATVAHLVGALRSCQMNLVADLVQEVQQARDLQNRSGAMSPMSWNSDASTSEAS
notes: FADD (Fas-associated death domain protein), full length; Cloned into pET-28b between NdeI and BamHI
stoichiometry N: 1
